Experimental data taken from PMC3094553.

Target: PF0699 (conserved hypothetical protein) (Pyrococcus furiosus) (UniProt Q8U2X9)
Assay: SAXS

“PF0699 (conserved hypothetical protein) (from UniProt Q8U2X9 1-139) (natural protein)” gave a stoichiometry N of 2.
